Key:
MMP-7 = biological target: T1, MMP-7 (Mus musculus, UniProt Q10738); assay: MMP inhibition assay (FRET peptide substrate), APMA-activated MMP-7; type: biochemical; conditions: CLU 50 μg/ml (0.63 μM), RT 0.3 h
T1 construct: purchased R&D Systems
T1 sequence (Q10738 95-264): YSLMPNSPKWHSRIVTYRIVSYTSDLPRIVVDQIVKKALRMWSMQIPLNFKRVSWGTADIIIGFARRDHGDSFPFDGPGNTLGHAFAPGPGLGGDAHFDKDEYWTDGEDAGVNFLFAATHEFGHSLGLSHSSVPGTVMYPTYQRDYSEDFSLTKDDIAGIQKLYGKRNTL
Procedure: Recombinant MMP-9 catalytic domain (A) or APMA-activated MMP-7 (B) was incubated with PBS, CLU (50 μg/ml or 0.63 μM), SB3-CT (2 μM), or BSA (50 μg/ml), and MMP FRET substrate at RT for 0.3 h. RFU in PBS samples was considered 100%. Each reaction was performed in triplicate. Standard errors were depicted as a bar in each graph. MMPs were mixed with CLD in TSCB buffer, 50 mM Tris-HCI, pH, 7.5, 150 mM NaCl, 5 mM CaCl2, 0.002% Brij35 (or otherwise indicated concentration) 30 min prior to substrate addition, and incubated for 3 h at RT in the presence or absence of 0.02 mM p-aminophenylmercuric acetate (APMA). MMP activity was measured using a 5-FAM/QXL520 fluorescence resonance energy transfer (FRET) peptide as a substrate (EXlEm=490 nm/520 nm) (AnaSpec, Fremont, Calif.), according to the manufacturer's protocol. Relative fluorescence unit (RFU) was obtained by subtracting the values of APMA- or enzyme-omitted reactions from those of test samples, and then considering the fluorescence unit of a PBS (vehicle) sample as 100%. Enzyme reactions were performed in black 96-well plate, containing combinations of 10 ng, 5 ng, 5 ng, 10 ng, 2.5 μg, 2.5 μg of MMP-2, MMP-7, catalytic domain of MMP-9, MMP-9, CCLU, and/or BSA, respectively, in 50 μl reaction volume. As MMP substrates (0.4 μM), 520 MMP FRET substrate […] […] Fluorescence was monitored using a Victor^3TM V multilabel counter (PerkinElmer). […]

GST-MMP-9 = assay: GST pull-down assay with GST-tagged MMP-9; type: binding, mouse; conditions: presence or absence of bacterial lysate
Sequence of GST-MMP-9 (P41245 109-730 limits assumed): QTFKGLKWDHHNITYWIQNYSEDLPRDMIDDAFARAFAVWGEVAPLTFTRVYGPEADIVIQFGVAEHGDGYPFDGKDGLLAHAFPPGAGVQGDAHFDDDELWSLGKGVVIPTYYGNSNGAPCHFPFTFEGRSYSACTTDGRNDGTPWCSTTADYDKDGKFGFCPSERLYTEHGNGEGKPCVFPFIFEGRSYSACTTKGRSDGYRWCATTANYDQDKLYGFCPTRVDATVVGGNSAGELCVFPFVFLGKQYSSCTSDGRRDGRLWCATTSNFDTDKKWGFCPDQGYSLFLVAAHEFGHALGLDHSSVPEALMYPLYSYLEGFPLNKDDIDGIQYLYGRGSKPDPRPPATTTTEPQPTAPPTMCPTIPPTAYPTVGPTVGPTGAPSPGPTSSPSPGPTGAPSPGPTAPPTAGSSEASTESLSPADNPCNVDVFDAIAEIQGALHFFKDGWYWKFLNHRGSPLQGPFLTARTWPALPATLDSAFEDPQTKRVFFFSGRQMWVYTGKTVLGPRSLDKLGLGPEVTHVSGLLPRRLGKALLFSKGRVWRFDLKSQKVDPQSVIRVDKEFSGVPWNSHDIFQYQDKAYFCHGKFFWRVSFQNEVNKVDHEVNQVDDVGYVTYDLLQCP
Procedure: (A) GST-tagged MMP-9 was purified from the bacterial cells transformed by the expression vector, and immobilized to the anti-GST-beads to prepare MMP-9-GST beads. Purified CLU-HA was incubated with MMP-9-GST beads (M-GST) or GST-beads (GST) in the presence (+Lysate) or absence (−Lysate) of bacterial lysate, followed by washing the beads with binding buffer. Bound proteins were resolved on denaturing 8% SDS/PAGE gel for the immunoblotting with anti-HA antibody. CLU cDNA detected in the yeast two hybrid assay, which corresponds to the CLU coding sequence beginning at position 212 from the ATG site, was used to produce a protein band of approximately 40 KDa. (B) Gelatin (20 μg) and CLU (2 μg) were mixed and incubated in the presence or absence of active MMP-9, followed by denaturing 12% SDS/PAGE gel electrophoresis, which then was stained with Coomasie blue. Two subunits of CLU are designated as α and β.
The GST tagged MMP-9 constructs were generated by ligation of the pGB-MMP-9 EcoR I/Sal I inserts into the pGEX 4T vector (Amersham, Piscataway, N.J.). The pGEX 4T MMP-9 constructs were transformed into the E. Coli strain BL21(DE3) (Novagen, Gibbstown, N.J.) for expression. […]
To further confirm the interaction between MMP-9 and CLU that was detected by yeast two hybrid screening, we performed GST pull down assay using recombinant GST-tagged MMP-9 fusion protein. […]

inhibition of APMA-activated MMP-7 (MMP-7): 17%
B1: CLU: secreted disulfide-linked heterodimeric glycoprotein (70-80 KD); assays used recombinant mouse CLU with C-terminal (His)6 (protein, UniProt Q06890 22-448, looked up)
Clusterin: EQEVSDNELQELSTQGSRYINKEIQNAVQGVKHIKTLIEKTNAERKSLLNSLEEAKKKKEDALEDTRDSEMKLKAFPEVCNETMMALWEECKPCLKHTCMKFYARVCRSGSGLVGQQLEEFLNQSSPFYFWMNGDRIDSLLESDRQQSQVLDAMQDSFARASGIIDTLFQDRFFARELHDPHYFSPIGFPHKRPHFLYPKSRLVRSLMSPSHYGPPSFHNMFQPFFEMIHQAQQAMDVQLHSPAFQFPDVDFLREGEDDRTVCKEIRRNSTGCLKMKGQCEKCQEILSVDCSTNNPAQANLRQELNDSLQVAERLTEQYKELLQSFQSKMLNTSSLLEQLNDQFNWVSQLANLTQGEDKYYLRVSTVTTHSSDSEVPSRVTEVVVKLFDSDPITVVLPEEVSKDNPKFMDTVAEKALQEYRRKSRAE
modifications: C-terminal His6 tag
interaction of HA-tagged CLU with GST-MMP-9 (GST-MMP-9): still interacted even in the presence of the bacterial lysate
